Data from IntAct's records for PubMed 29892012.

B1: Enhancer of mRNA-decapping protein 3 (Homo sapiens), Q96F86 (parent)
chain: MATDWLGSIVSINCGDSLGVYQGRVSAVDQVSQTISLTRPFHNGVKCLVPEVTFRAGDITELKILEIPGPGDNQHFGDLHQTELGPSGAGCQVGINQNGTGKFVKKPASSSSAPQNIPKRTDVKSQDVAVSPQQQQCSKSYVDRHMESLSQSKSFRRRHNSWSSSSRHPNQATPKKSGLKNGQMKNKDDECFGDDIEEIPDTDFDFEGNLALFDKAAVFEEIDTYERRSGTRSRGIPNERPTRYRHDENILESEPIVYRRIIVPHNVSKEFCTDSGLVVPSISYELHKKLLSVAEKHGLTLERRLEMTGVCASQMALTLLGGPNRLNPKNVHQRPTVALLCGPHVKGAQGISCGRHLANHDVQVILFLPNFVKMLESITNELSLFSKTQGQQVSSLKDLPTSPVDLVINCLDCPENVFLRDQPWYKAAVAWANQNRAPVLSIDPPVHEVEQGIDAKWSLALGLPLPLGEHAGRIYLCDIGIPQQVFQEVGINYHSPFGCKFVIPLHSA
partner: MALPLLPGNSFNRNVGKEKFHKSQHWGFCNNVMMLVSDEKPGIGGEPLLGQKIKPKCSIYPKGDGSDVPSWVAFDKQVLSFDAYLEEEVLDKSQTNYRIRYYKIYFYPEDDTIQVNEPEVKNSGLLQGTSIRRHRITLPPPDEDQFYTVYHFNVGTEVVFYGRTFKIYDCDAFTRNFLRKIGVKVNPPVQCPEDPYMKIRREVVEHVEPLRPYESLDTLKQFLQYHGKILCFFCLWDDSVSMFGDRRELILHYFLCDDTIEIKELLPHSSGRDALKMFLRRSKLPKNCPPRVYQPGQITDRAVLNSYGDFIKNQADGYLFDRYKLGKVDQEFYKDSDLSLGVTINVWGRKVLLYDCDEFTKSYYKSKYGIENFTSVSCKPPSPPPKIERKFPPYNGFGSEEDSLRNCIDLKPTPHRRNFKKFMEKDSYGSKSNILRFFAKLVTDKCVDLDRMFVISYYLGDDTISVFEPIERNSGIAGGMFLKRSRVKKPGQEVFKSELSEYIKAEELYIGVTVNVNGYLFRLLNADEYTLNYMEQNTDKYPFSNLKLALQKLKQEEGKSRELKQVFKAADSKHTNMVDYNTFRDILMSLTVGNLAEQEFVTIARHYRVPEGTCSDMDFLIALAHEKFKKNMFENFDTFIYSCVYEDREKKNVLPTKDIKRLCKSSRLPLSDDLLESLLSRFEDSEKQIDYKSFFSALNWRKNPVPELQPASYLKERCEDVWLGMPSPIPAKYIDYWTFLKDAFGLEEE
B2: Keratin, type I cuticular Ha8 (Homo sapiens), O76015 (parent)
chain: MTSSYSSSSCPLGCTMAPGARNVSVSPIDIGCQPGAEANIAPMCLLANVAHANRVRVGSTPLGRPSLCLPPTCHTACPLPGTCHIPGNIGICGAYGENTLNGHEKETMQFLNDRLANYLEKVRQLEQENAELEATLLERSKCHESTVCPDYQSYFHTIEELQQKILCSKAENARLIVQIDNAKLAADDFRIKLESERSLRQLVEADKCGTQKLLDDATLAKADLEAQQESLKEEQLSLKSNHEQEVKILRSQLGEKLRIELDIEPTIDLNRVLGEMRAQYEAMLETNRQDVEQWFQAQSEGISLQDMSCSEELQCCQSEILELRCTVNALEVERQAQHTLKDCLQNSLCEAEDRFGTELAQMQSLISNVEEQLSEIRADLERQNQEYQVLLDVKTRLENEIATYRNLLESEDCKLPCNPCSTSPSCVTAPCAPRPSCGPCTTCGPTCGASTTGSRF
partner: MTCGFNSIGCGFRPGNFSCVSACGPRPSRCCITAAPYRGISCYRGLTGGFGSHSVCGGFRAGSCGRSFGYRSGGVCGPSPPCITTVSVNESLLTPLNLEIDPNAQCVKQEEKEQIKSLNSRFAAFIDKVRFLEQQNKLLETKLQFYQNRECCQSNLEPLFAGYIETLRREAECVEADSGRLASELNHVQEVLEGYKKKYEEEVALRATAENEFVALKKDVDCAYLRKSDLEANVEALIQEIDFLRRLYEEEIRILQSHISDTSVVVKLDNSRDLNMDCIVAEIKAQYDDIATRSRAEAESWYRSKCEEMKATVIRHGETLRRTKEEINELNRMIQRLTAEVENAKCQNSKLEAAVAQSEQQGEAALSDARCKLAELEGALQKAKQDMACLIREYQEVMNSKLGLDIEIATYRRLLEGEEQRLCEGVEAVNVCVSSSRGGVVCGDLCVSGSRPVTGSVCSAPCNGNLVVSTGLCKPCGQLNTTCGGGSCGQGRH
B3: Vacuolar protein-sorting-associated protein 25 (Homo sapiens), Q9BRG1 (parent)
chain: MAMSFEWPWQYRFPPFFTLQPNVDTRQKQLAAWCSLVLSFCRLHKQSSMTVMEAQESPLFNNVKLQRKLPVESIQIVLEELRKKGNLEWLDKSKSSFLIMWRRPEEWGKLIYQWVSRSGQNNSVFTLYELTNGEDTEDEEFHGLDEATLLRALQALQQEHKAEIITVSDGRGVKFF
partner: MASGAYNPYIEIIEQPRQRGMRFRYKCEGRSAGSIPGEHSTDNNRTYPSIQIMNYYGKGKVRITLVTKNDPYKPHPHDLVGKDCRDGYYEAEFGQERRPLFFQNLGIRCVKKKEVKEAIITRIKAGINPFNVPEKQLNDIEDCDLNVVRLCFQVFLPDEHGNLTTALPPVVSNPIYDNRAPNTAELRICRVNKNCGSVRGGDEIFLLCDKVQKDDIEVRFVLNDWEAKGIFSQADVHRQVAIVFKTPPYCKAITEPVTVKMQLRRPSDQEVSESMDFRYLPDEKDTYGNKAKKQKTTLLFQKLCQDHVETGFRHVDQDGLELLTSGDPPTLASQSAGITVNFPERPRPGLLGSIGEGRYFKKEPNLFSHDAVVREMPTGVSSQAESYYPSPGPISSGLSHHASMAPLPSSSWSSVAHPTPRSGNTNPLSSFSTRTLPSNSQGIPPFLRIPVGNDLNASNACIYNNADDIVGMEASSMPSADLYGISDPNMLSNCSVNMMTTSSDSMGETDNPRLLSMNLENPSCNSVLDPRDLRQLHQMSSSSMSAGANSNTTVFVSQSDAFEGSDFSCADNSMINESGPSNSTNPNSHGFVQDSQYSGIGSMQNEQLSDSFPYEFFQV
B4: F-box/LRR-repeat protein 12 (Homo sapiens), Q9NXK8 (parent)
chain: MATLVELPDSVLLEIFSYLPVRDRIRISRVCHRWKRLVDDRWLWRHVDLTLYTMRPKVMWHLLRRYMASRLHSLRMGGYLFSGSQAPQLSPALLRALGQKCPNLKRLCLHVADLSMVPITSLPSTLRTLELHSCEISMAWLHKQQDPTVLPLLECIVLDRVPAFRDEHLQGLTRFRALRSLVLGGTYRVTETGLDAGLQELSYLQRLEVLGCTLSADSTLLAISRHLRDVRKIRLTVRGLSAPGLAVLEGMPALESLCLQGPLVTPEMPSPTEILSSCLTMPKLRVLELQGLGWEGQEAEKILCKGLPHCMVIVRACPKESMDWWM
partner: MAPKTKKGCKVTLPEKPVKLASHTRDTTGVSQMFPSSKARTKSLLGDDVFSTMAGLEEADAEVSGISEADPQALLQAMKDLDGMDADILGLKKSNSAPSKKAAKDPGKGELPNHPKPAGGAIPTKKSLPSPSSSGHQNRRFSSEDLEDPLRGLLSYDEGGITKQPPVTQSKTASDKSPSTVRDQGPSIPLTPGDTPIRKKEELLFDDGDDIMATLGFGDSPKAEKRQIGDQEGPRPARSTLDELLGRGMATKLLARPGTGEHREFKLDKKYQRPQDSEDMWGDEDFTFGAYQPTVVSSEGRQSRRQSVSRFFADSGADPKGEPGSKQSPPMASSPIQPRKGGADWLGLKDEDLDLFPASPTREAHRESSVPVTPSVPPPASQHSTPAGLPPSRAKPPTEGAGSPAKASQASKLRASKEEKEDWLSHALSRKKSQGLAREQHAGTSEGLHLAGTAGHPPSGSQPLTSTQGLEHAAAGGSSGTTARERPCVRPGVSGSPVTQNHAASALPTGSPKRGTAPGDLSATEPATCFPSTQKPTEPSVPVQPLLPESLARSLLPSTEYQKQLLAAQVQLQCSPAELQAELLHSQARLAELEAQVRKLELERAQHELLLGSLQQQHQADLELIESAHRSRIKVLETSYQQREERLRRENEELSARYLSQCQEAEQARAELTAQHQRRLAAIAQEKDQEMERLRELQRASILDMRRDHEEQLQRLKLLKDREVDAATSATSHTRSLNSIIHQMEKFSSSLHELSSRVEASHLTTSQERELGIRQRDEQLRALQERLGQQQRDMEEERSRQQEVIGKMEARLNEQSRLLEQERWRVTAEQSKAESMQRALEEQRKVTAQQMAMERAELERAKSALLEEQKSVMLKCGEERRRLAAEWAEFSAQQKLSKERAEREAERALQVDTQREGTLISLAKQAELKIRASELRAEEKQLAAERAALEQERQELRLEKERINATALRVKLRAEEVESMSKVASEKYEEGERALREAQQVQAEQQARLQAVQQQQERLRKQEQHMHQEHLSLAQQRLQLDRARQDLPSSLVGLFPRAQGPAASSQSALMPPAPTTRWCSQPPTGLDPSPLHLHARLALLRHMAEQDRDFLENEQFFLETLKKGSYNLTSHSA
B5: Pre-B-cell leukemia transcription factor 4 (Homo sapiens), Q9BYU1 (parent)
chain: MAAPPRPAPSPPAPRRLDTSDVLQQIMAITDQSLDEAQARKHALNCHRMKPALFSVLCEIKEKTVVSIRGIQDEDPPDAQLLRLDNMLLAEGVCRPEKRGRGGAVARAGTATPGGCPNDNSIEHSDYRAKLSQIRQIYHSELEKYEQACREFTTHVTNLLQEQSRMRPVSPKEIERMVGAIHGKFSAIQMQLKQSTCEAVMTLRSRLLDARRKRRNFSKQATEVLNEYFYSHLNNPYPSEEAKEELARKGGLTISQVSNWFGNKRIRYKKNMGKFQEEATIYTGKTAVDTTEVGVPGNHASCLSTPSSGSSGPFPLPSAGDAFLTLRTLASLQPPPGGGCLQSQAQGSWQGATPQPATASPAGDPGSINSSTSN
partner: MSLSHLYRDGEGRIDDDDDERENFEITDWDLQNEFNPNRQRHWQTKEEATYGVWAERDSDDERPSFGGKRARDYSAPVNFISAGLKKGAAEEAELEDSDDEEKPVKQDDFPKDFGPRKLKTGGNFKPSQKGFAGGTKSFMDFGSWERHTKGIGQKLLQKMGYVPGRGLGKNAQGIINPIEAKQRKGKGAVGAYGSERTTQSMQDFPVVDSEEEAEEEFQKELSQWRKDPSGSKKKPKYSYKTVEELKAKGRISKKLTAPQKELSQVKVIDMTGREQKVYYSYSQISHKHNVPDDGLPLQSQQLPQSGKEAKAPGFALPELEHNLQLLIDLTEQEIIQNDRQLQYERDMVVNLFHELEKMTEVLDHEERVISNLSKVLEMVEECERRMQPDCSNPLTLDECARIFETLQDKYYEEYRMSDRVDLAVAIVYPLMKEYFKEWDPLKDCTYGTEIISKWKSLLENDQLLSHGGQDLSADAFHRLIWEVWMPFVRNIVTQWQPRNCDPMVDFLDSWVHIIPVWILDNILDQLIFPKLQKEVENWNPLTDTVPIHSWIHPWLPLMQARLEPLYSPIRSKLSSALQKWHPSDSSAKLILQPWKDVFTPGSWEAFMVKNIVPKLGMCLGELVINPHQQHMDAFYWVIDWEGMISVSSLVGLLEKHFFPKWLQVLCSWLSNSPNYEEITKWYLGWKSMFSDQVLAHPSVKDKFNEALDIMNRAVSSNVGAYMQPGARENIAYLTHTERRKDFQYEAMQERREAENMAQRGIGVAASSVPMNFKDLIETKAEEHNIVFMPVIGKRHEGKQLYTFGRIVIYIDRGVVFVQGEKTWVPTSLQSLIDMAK

Variants of: B1
Details: with efhc2_human EFHC2, Q5JST6

| effect of a mutation on the interaction | Variant |
| --- | --- |
| with no effect | F213L |

Variants of: B2
Details: with krt83_human KRT83, P78385

| effect of a mutation on the interaction | Variant |
| --- | --- |
| with no effect | N270K |

Variants of: B2
Details: with krt83_human KRT83, P78385
Remark: another data set of the same source

| effect of a mutation on the interaction | Variant |
| --- | --- |
| with no effect | D306A |

Variants of: B3
Details: with rel_human REL

| effect of a mutation on the interaction | Variant |
| --- | --- |
| disrupting interaction strength | P58Q |

Variants of: B4
Details: with fbf1_human FBF1, Q8TES7

| effect of a mutation on the interaction | Variant |
| --- | --- |
| with no effect | I313V |

Variants of: B5
Details: with tfp11_human TFIP11, Q9UBB9

| effect of a mutation on the interaction | Variant |
| --- | --- |
| with no effect | A247T |
